# Reference: article PMC8447599
# Assays:
# [1] = molecular target: HoxA without the hydrophobic C-terminal membrane anchor (HoxA∆CTA), Strep-tagged (Alternaria alternata); assay: SEC
# [2] = molecular target: Apo-PGP (photosensory domain of FphA without chromophore) (A. nidulans); assay: BLI
# [3] = molecular target: Holo-PGP (chromophore-loaded photosensory domain of FphA) (A. nidulans); assay: BLI
substance,measurement,setting,value
"HoxA without the hydrophobic C-terminal membrane anchor (HoxA∆CTA), Strep-tagged (domain or fragment)",stoichiometry N,[1],2
same,Kd,[2],0.00113 mM
same,Kd,[3],64.6 mM
